According to FireProtDB (doi:10.1021/acs.biochem.7b00571):

B1: Salicylic acid-binding protein 2, Q6RYA0 (parent)
chain: MKEGKHFVLVHGACHGGWSWYKLKPLLEAAGHKVTALDLAASGTDLRKIEELRTLYDYTLPLMELMESLSADEKVILVGHSLGGMNLGLAMEKYPQKIYAAVFLAAFMPDSVHNSSFVLEQYNERTPAENWLDTQFLPYGSPEEPLTSMFFGPKFLAHKLYQLCSPEDLALASSLVRPSSLFMEDLSKAKYFTDERFGSVKRVYIVCTEDKGIPEEFQRWQIDNIGVTEAIEIKGADHMAMLCEPQKLCASLLEIAHKYN

Variants of: B1
Conditions: Nicotiana tabacum; pH 7.2; 4 °C; Urea; Fluorescence; BES; reversible: yes; structure 1Y7I; whole UniProt chain shown

Variant | denaturant midpoint (higher = more stable) [M]
G226P | 1.6
C249A | 2.1
V227P | 1.8
C243S | 2.1
A230V | 2.6
I225T | 1.5
A71P | 1.9
A250K | 2
T228S | 1.9
S111G | 1.7
S111P | 1.7
E244K | 3
A189N | 2.6
A189S | 2.5
A172V | 2.3
N114G | 2.5
N114L | 2
L46P | 2.4
E215P | 3.2
L65F | 3.8

Variant | denaturant midpoint (higher = more stable) [M]
I231R | 1.9
S115A | 2.4
S115P | 1.9
Q162H | 2.4
K188R | 2.5
S165P | 2.5
F197Y | 2.2
Y94F | 2.2
S251V | 2.2
E144Y | 2.4
E144M | 2
L60R | 2.7
K247E | 1.1
G212C | 3.5
Q221M | 2.7
S141N | 1.8
S141P | 2.2
S70P | 2.4
C164S | 0.9
G17A | 2.1
